Data taken from patent US20230190900 (published 2023).

Legend:
human FcγRIIb (CD32B) = molecular target: T1, human FcγRIIb (CD32B) (human, UniProt P31994); assay: SPR
T1 chain: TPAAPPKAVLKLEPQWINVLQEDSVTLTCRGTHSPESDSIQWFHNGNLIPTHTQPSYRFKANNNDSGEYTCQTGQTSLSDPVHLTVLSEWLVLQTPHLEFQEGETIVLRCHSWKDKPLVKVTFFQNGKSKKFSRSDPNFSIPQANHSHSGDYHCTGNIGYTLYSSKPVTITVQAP

murine FcγRIII = molecular target: T2, murine FcγRIII (mouse, UniProt P08508); assay: SPR
T2 chain: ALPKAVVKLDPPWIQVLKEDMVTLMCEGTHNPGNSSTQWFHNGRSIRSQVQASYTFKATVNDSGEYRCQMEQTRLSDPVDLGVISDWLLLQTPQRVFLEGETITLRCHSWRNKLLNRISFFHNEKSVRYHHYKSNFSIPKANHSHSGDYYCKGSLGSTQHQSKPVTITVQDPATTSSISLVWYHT

murine FcγRIV (CD16-2) = molecular target: T3, murine FcγRIV (CD16-2) (mouse, UniProt A0A0B4J1G0); assay: SPR
T3 chain: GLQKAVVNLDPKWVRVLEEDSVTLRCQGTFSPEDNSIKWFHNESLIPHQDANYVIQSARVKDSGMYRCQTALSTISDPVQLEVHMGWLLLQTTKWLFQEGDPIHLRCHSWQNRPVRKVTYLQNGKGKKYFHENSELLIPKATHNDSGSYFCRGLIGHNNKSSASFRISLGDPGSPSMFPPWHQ

murine FcγRIIb = molecular target: T4, murine FcγRIIb (mouse, UniProt P08101); assay: SPR
T4 chain: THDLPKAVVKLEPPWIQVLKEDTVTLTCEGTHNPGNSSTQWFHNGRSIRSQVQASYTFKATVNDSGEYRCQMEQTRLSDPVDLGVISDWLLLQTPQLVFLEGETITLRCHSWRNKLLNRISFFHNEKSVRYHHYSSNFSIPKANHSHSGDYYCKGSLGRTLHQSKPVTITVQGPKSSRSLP

human FcγRI (CD64) = molecular target: T5, human FcγRI (CD64) (human, UniProt P12314); assay: SPR
T5 chain: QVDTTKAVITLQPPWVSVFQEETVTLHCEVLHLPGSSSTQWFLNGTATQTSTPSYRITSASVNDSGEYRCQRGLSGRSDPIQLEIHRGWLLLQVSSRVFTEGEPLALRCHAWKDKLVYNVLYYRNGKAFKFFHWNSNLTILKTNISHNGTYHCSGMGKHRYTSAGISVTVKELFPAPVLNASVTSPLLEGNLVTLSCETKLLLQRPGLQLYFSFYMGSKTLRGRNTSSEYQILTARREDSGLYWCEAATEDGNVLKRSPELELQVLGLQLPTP

human FcγRIIa (CD32A) = molecular target: T6, human FcγRIIa (CD32A) (human, UniProt P12318); assay: SPR
T6 chain: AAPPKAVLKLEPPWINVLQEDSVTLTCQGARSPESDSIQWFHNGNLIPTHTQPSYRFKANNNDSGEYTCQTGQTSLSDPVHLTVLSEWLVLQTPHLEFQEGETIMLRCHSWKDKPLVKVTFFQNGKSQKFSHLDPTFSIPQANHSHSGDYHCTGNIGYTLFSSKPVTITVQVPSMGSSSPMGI

murine FcγRI = molecular target: T7, murine FcγRI (mouse, UniProt P26151); assay: SPR
T7 chain: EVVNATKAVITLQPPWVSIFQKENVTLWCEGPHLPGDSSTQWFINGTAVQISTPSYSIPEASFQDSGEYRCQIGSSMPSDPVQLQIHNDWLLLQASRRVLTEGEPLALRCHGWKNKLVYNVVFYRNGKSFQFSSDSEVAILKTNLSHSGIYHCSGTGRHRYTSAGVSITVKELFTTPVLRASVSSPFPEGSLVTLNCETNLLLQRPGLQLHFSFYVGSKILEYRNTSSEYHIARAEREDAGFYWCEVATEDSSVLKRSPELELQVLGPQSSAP

human FcγRIIc (CD32C) = molecular target: T8, human FcγRIIc (CD32C) (human, UniProt P31995); assay: SPR
T8 chain: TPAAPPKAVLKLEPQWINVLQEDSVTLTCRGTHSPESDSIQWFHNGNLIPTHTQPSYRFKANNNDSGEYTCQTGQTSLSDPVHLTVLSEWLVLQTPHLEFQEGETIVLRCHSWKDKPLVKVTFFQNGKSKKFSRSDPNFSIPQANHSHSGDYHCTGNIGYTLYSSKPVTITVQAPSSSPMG

human FcRn = human FcRn (human, UniProt P55899); assay: SPR, pH 6.0
murine FcRn = molecular target: T9, murine FcRn (mouse, UniProt Q61559); assay: SPR, pH 6.0
T9 chain 1: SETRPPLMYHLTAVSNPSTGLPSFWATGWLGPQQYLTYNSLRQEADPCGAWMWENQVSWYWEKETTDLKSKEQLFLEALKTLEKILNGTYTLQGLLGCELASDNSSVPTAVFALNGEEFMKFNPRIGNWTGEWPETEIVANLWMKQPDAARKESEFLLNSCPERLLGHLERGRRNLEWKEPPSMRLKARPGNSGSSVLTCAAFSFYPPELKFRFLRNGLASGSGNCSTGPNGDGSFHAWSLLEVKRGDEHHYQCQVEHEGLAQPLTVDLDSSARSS
T9 chain 2: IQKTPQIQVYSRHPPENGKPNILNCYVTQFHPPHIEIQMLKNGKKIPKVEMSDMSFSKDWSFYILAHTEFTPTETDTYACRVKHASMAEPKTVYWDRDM

[1] = molecular target: T10, cynomolgus FcγRIIa (CD32A) (cynomolgus); assay: SPR
T10 chain: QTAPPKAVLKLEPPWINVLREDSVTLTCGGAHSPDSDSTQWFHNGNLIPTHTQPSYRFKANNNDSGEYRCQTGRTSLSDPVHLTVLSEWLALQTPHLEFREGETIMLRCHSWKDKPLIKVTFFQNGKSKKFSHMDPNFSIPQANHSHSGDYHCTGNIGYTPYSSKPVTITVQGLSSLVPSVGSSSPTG

[2] = molecular target: T11, human FcγRIIIb (NA1) CD16B (human, UniProt O75015); assay: SPR
T11 chain: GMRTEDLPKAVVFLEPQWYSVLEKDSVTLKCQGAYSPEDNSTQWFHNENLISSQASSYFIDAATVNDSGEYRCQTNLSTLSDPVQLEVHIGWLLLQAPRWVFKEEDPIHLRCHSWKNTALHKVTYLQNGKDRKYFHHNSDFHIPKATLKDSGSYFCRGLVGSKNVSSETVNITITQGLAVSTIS

cynomolgus FcRn = molecular target: T12, cynomolgus FcRn (cynomolgus, UniProt Q8SPV9); assay: SPR, pH 6.0
T12 chain 1: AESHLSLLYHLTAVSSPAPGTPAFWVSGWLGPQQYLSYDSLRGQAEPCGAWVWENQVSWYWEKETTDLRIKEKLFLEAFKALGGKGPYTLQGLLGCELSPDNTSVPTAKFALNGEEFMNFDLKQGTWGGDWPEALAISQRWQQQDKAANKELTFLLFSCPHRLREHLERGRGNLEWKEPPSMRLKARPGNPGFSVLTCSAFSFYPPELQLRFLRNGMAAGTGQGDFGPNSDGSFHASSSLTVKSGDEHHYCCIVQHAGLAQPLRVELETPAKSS
T12 chain 2: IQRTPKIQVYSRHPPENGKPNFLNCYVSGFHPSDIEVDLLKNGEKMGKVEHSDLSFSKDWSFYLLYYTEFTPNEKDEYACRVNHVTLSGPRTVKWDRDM

binding result (human FcγRIIb (CD32B)): no binding | binding result (murine FcγRIII): no binding | binding result (murine FcγRIV (CD16-2)): no binding | binding result (murine FcγRIIb): no binding | binding result (human FcγRI (CD64)): no binding | binding result (human FcγRIIa (CD32A)): no binding | binding result (murine FcγRI): no binding | binding result (human FcγRIIc (CD32C)): no binding | binding result (human FcRn): no binding | binding result (murine FcRn): no binding | binding result [1]: no binding | binding result [2]: no binding | binding result (cynomolgus FcRn): no binding
B1: EGFR/CD16A tandem diabody (full) (antibody)
chain 1: QVQLQESGPGLVKPSETLSLTCTVSGGSVSSGSYYWSWIRQPPGKGLEWIGYIYYSGSTNYNPSLKSRVTISVDTSKNQFSLKLSSVTAADTAVYYCARNPISIPAFDIWGQGTMVTVSSGGSGGSGGSSYVLTQPSSVSVAPGQTATISCGGHNIGSKNVHWYQQRPGQSPVLVIYQDNKRPSGIPERFSGSNSGNTATLTISGTQAMDEADYYCQVWDNYSVLFGGGTKLTVLGGSGGSQVQLVQSGAEVKKPGESLKVSCKASGYTFTSYYMHWVRQAPGQGLEWMGIINPSGGSTSYAQKFQGRVTMTRDTSTSTVYMELSSLRSEDTAVYYCARGSAYYYDFADYWGQGTLVTVSSGGSGGSGGSQPVLTQPPSVSVAPGKTARITCGGNNIGSKSVHWYQQKPGQAPVLVIYYDSDRPSGIPERFSGSNSGNTATLTISRVEAGDEADYYCQVWDTSSDHVLFGGGTKLTVLAAAGSHHHHHH
chain 2: B1 chain 1
